Assay results reported in paper PMC11742690.

Target: AMDHD1 (UniProt Q96NU7)
Assay: co-immunoprecipitation, western blot
Settings: sites S464,S465,S467

| binding against the reference (reference: wild-type SMAD2) | binding against the reference (reference: wild-type SMAD3) | Substance |
| --- | --- | --- |
| lost | – | SMAD2 (from UniProt Q15796) SMAD2-A (S464A/S465A/S467A) |
| – | lost | SMAD3 (from UniProt P84022) SMAD3-A (three C-terminal serines to alanine) |
